Measured values taken from patent US20200031947A1 (RINAT NEUROSCIENCE, published 2020).

T1: mouse GITR (mGITR), soluble analyte (mouse, UniProt O35714 20-153, limits assumed)
T1 construct: Soluble analyte in SPR; construct not described
T1 sequence (looked up): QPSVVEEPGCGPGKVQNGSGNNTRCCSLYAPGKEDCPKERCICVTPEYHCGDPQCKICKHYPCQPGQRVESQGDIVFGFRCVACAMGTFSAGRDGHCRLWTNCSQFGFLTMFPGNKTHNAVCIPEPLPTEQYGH

T2: human GITR on cells (human, UniProt Q9Y5U5 26-162)
T2 sequence: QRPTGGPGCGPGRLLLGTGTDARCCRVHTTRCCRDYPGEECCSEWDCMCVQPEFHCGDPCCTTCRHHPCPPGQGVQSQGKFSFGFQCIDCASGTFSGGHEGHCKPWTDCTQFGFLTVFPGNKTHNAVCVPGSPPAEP

T3: human GITR (hGITR), soluble analyte (human, UniProt Q9Y5U5 26-162)
T3 sequence: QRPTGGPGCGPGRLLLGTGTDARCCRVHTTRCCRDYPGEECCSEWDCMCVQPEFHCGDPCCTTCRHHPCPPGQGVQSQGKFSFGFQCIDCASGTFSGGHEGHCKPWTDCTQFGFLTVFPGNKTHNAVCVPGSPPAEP


Columns and labels:
[1] = target: T1, mouse GITR (mGITR), soluble analyte; experiment: SPR (Biacore T200), 37 C; purified antibody captured on anti-mouse Ig chip, mGITR as analyte (300 nM top, 3-fold series); 1:1 Langmuir fit
Description: (§1) The sensor chip preparation was performed at 25° C. with a running buffer of 10 mM HEPES, 150 mM NaCl, 0.05% (v/v) Tween-20, pH 7.4. An anti-mouse Fc sensor chip was made by activating all flow cells of a Biacore CM4 sensor chip with a 1:1 (v/v) mixture of 400 mM EDC and 100 mM NHS for 7 minutes, at a flow rate of 10 μL/min. An anti-mouse immunoglobulin reagent (Rabbit anti-mouse immunoglobulin antibodies from Biacore Mouse Antibody Capture Kit, GE Lifesciences Catalog # BR-1008-38) was diluted to 60 pg/mL in 10 mM Sodium Acetate pH 5.0 and injected on all flow cells for 7 minutes at 20 μL/min. All flow cells were blocked with 100 mM ethylenediamine in 150 mM Borate buffer pH 8.5 for 7 minutes at 10 μL/min.
The experiments were performed at 37° C. using a running buffer of 10 mM HEPES, 150 mM NaCl, 0.05% (v/v) Tween-20, pH 7.4, 1 mg/mL BSA.
Purified antibodies were captured at […] onto downstream flow cells (flow cells 2, 3 and 4) at a flow rate of 10 μL/min for 2 minutes. Different antibodies were captured on each flow cell. Flow cell 1 was used as a reference surface. Following capture of antibodies, analyte (buffer, or mGITR) was injected at 30 μL/min on all flow cells for two minutes. After the analyte injection, dissociation was monitored for 10 minutes followed by regeneration of all flow cells with one 3-minute injection of 10 mM Glycine pH 1.7. A 5-membered dilution series of mGITR was analyzed using this method, where the top concentration was 300 nM and the dilution factor was 3-fold. The 33 nM dilution was run in duplicate. Buffer cycles were collected for each captured antibody for double-referencing purposes (double-referencing as described in Myszka, J. Mol. Recognit. 12:279-284 (1999). The double-referenced sensorgrams were fit globally to a simple 1:1 Langmuir with mass transport binding model.

human GITR on cells [2] = target: T2, human GITR on cells; experiment: cell-based or functional assay
[3] = target: T3, human GITR (hGITR), soluble analyte; experiment: SPR (Biacore T200), 37 C; antibody captured on anti-human Fc chip, GITR as analyte; 1:1 Langmuir fit
Description: as §1, with “anti-human” for “anti-mouse”, “anti-human Fc” for “anti-mouse immunoglobulin”, “(Goat Anti-Human IgG Fc, SouthernBiotech” for “(Rabbit anti-mouse immunoglobulin antibodies from Biacore Mouse Antibody Capture Kit, GE Lifesciences”, “#2081-01)” for “# BR-1008-38)”, “[…]” for “60”, “4.5” for “5.0”
(§2) Antibodies were captured from undiluted supernatants onto downstream flow cells (flow cells 2, 3 and 4) at a flow rate of 10 μL/min for 2 minutes. Different antibodies were captured on each flow cell. Flow cell 1 was used as a reference surface. Following capture of antibodies, analyte (buffer, hGITR, or cyGITR) was injected at 30 μL/min on all flow cells for two minutes. After the analyte injection, dissociation was monitored for 10 minutes followed by regeneration of all flow cells with three 1-minute injections of 75 mM Phosphoric Acid. For each captured antibody, the following analyte injections were performed: buffer, 20 nM hGITR, 200 nM hGITR, 20 nM cyGITR and 200 nM cyGITR. Buffer cycles were collected for each captured antibody for double-referencing purposes (double-referencing as described in Myszka, J. Mol. Recognit. 12:279-284 (1999). The double-referenced sensorgrams were fit globally to a simple 1:1 Langmuir with mass transport binding model.

[4] = target: T4, cynomolgus GITR (cyGITR), soluble analyte (cynomolgus); experiment: as above
T4 construct: Soluble analyte in SPR; construct not described; also called cGITR
Description: as §1, with “anti-human” for “anti-mouse”, “anti-human Fc” for “anti-mouse immunoglobulin”, “(Goat Anti-Human IgG Fc, SouthernBiotech” for “(Rabbit anti-mouse immunoglobulin antibodies from Biacore Mouse Antibody Capture Kit, GE Lifesciences”, “#2081-01)” for “# BR-1008-38)”, “[…]” for “60”, “4.5” for “5.0”
as §2

human GITR on cells [5] = target: T2, human GITR on cells; experiment: flow cytometry on human T cells activated 48 h with CD3/28 beads; unlabeled antibody detected with APC goat anti-mouse Fc gamma F(ab')2
Text: Primary human lymphocytes were isolated from concentrated whole blood provided by the Stanford Blood Bank by first diluting blood 1:4 in Phosphate Buffered Saline (PBS, without Ca2+ and Mg2+). Peripheral Blood Mononuclear Cells (PBMC) were isolated using a Ficoll gradient underlay (Ficoll-Paque PLUS, GE Healthcare Life Sciences, Pittsburgh, Pa.). The harvested buffy layer was washed twice with PBS and counted. Cells were resuspended at 50*10e6c/mL in PBS+2% Fetal Bovine Serum (FBS) and processed with CD3 negative enrichment kit (Stem Cell Tech Vancouver, BC) according to manufacturer's instructions. After enrichment, cells were counted and frozen in aliquots of 10-20*10e6 in 90% FBS 10% DMSO freeze media for future use. For activation, a vial of cells from a donor T cell was thawed and rested overnight in R10c (RPMI 1640+10% FBS+1×NEAA+1×Sodium Pyruvate+1×Pen-Strep) at 1*10e6 cells/mL in a T75 flask. Cells were counted and stimulated for 48 hours with Dynabeads Human CD3/28 T cells activating beads at a 1:1 bead to cell ratio (Thermo Fisher). After 48 hours the cells were removed from media and washed with 1×PBS. Cells were titrated into a 96 well plate where they were stained with unlabeled mouse anti-human GITR antibodies (100-0.001 ug/mL) in PBS and incubated for 30 minutes at 37° c. […]

human GITR on cells [6] = target: T2, human GITR on cells; experiment: flow cytometry on in vitro expanded human Tregs; unconjugated antibody detected with A647 goat anti-human Fc gamma F(ab')2; MFI on antibody positive cells
Description: Cultured Tregs would be tracked throughout expansion to check purity. Cells were re-suspended in FACS buffer, PBS with 2% FBS for analysis using fluorophore conjugated CD markers. FACS antibodies against GITR and other CD lymphocyte markers were prepared in FACS buffer at the appropriate concentration and incubated for 30 minutes at RT. Treg purity staining utilizes intracellular targets and were processed with Foxp3 fix/perm kit (Affymetrix/eBiosciense, San Diego, Calif.). Stained cells were resuspended in fresh FACS buffer and analyzed on a FACS analyzer LSRII or Fortessa (BD Biosciences, San Jose, Calif.). To generate kinetic and binding data unconjugated antibody was titrated from 10-0.001 ug/mL (1:10 in serial dilutions, triplicate wells per concentration) and incubated at 4c for 60 minutes with 1*10e5 expanded day 12 Tregs per well. Unbound antibody was washed from cells and an A647 labeled Fc gamma (Fcγ) Fragment Specific goat-anti-human affiniPure F(ab′)₂ IgG was used to detect bound antibody (Jackson ImmunoResearch Laboratories Inc, West Grove, Pa.). Analysis of stained cells completed with FlowJo (Treestar). Geometric mean of APC was used to calculate EC50 by log transforming the molar concentration and generating a non-linear fit curve in GraphPad Prism.

Binder	Kd [1] [nM]	koff [1] [s⁻¹]	kon [1] [M⁻¹ s⁻¹]	t1/2 [1] [min]	Kd [3] [nM]	koff [3] [s⁻¹]	kon [3] [M⁻¹ s⁻¹]	t1/2 [3] [min]	Kd [4] [nM]	koff [4] [s⁻¹]	t1/2 [4] [min]	EC50 of macrophage-mediated cytotoxicity (ADCP) of a GITR+ T cell line (human GITR on cells [2]) [nM]	also measured
anti-mGITR r18H12 mIgG2a (antibody, V domains shown) VH: EVQLVESDGVLVQPGKSLTLSCAASGFTFSDYYMAWVRQAPTKGLEWVATISYDDITTFYRDSVKGRFTISRDTAKSTLYLQMDSLRSEDTATYYCTRGLQWPYVMDAWGQGALVTVSS VL: DIVMTQSPSSLAVSAGETVTINCKSSQSLLYSGNQKSYLAWYQQKPGQSPKLLIYWASPRQSGVPDRFIGSGSGTDFTLTISSVQAEDMATYYCQQYYDAPPTFGGGTKLEIK	2.2	0.00049	220000	24	–	–	–	–	–	–	–	–	–
h3G7 R5 (antibody, V domains shown, Only variable domains are tied to this name) VH: QVQLVQSGAEVKKPGASVKVSCKASGYTFTGATMNWVRQAPGQGLEWMGLINPYTGGIRYNQKFKGRVTMTRDTSTSTVYMELSSLRSEDTAVYYCARIGGYYDSMDYWGQGTLVTVSS VL: DIQMTQSPSSLSASVGDRVTITCRASESVEPRGINFLNWYQQKPGKAPKLLIYAASQASKGVPSRFSGSGSGTDFTLTISSLQPEDFATYYCQQALELPWTFGGGTKVEIK	–	–	–	–	5	0.0045	900000	2.6	6.4	0.0038	3	0.92	kon [4]: 600000 M⁻¹ s⁻¹
h3G7 N9 (antibody, IgG1, V domains shown) VH: QVQLVQSGAEVKKPGASVKVSCKASGYTFTGYTVSWVRQAPGQGLEWMGLINPYTGGIRYNQKFKGRVTMTRDTSTSTVYMELSSLRSEDTAVYYCARIGGYYDSMDYWGQGTLVTVSS VL: DIQMTQSPSSLSASVGDRVTITCRASESVQPRGINFLNWYQQKPGKAPKLLIYAASNPSKGVPSRFSGSGSGTDFTLTISSLQPEDFATYYCQQALELPWTFGGGTKVEIK	–	–	–	–	–	–	–	–	–	–	–	0.692	–
h10H2 N14 (antibody, IgG1, V domains shown, also called R14; h10H2 R14) VH: QVQLVQSGAEVKKPGSSVKVSCKASGGTFSRYWIEWVRQAPGQGLEWMGEILPGSGVTFENEKFKGRVTITADESTSTAYMELSSLRSEDTAVYYCARKGRYYAMDYWGQGTSVTVSS VL: EIVLTQSPGTLSLSPGERATLSCRASQSIGTSIHWYQQKPGQAPRLLIYYASESVSGIPDRFSGSGSGTDFTLTISRLEPEDFAVYYCQQTYSWPATFGQGTKVEIK	–	–	–	–	–	–	–	–	–	–	–	2.01	EC50 (read off the curve) (human GITR on cells [6]): ~0.03 µg/mL

Second part, led by results:

Kd [1] [nM]	koff [1] [s⁻¹]	kon [1] [M⁻¹ s⁻¹]	t1/2 [1] [min]	Kd [3] [nM]	koff [3] [s⁻¹]	kon [3] [M⁻¹ s⁻¹]	t1/2 [3] [min]	Kd [4] [nM]	koff [4] [s⁻¹]	t1/2 [4] [min]	Binder	EC50 of macrophage-mediated cytotoxicity (ADCP) of a GITR+ T cell line (human GITR on cells [2]) [nM]	also measured
21	0.0065	310000	1.8	–	–	–	–	–	–	–	anti-mGITR r21B6 mIgG2a (antibody, V domains shown, also called m21B6 IgG2a) VH: EAQLVESGGGLVQPGRSLKLSCEASGFTFTKYGMAWVRQAPTKGLEWVASIINSGGNTYYRDSVKGRFTISRDNAKSTLYLQMDSLRSEDTATYYCATDYYDGSYHSDVVDAWGQGVLVTVSS VL: EIVLTQSPTTMAASPGEKVTITCRASSSLNYMHWFQQKSGTSPKPWIYDTSELASGVPDRFSGSGSGTSYSLTISSMEAEDAATYYCLQKNGYPLTFGSGTKLEIK	–	–
–	–	–	–	2.2	0.00077	350000	15	> 100	0.0073	1.6	m10H2 (antibody, V domains shown, In ADCC it is called hIgG1; also called anti-human GITR antibody m10H2; A647 labeled m10H2) VH: QVQLQQSGAELMKPGASVKISCTATGYTISRYWIEWVKQRPGHGLEWIGEILPGSGVTNYNEKFKGKATFTADTSSNTAYMQLSSLTSEDSAVYSCARKGTYYAMDYWGQGTSVTVSS VL: DILLTQSPAILSVSPGERVSFSCRASQSIGTSIHWYQQRTNGSPRLLIKYASESVSGIPSRFSGSGSGTDFTLFINSVESEDIADYYCQQTYSWPATFGAGTKLELK	–	EC50 (read off the curve) (human GITR on cells [5]): ~0.07 µg/mL
